Data on 1 molecule can be found in patent US20190185546A1.

Assay [1] has as its target HSV-2 (Herpes Simplex Virus type 2; antigen recognised not identified) (Herpes simplex virus 2). Description: cell-based or functional assay.
The target in assay [2] is HSV-1 (Herpes Simplex Virus type 1; antigen recognised not identified) (Herpes simplex virus 1). Description: cell-based or functional assay.

B1: Fab Ex2 (IgG1 Fab format) (Fab, V domains shown)
VH: LESGGGVVQPGRSLRLSCAASGFTFTTFAMHWVRQAPGKGLEWLAFISYDGSNKYYADSVKGRFTISRDNSKNTLYLQMNSLRAEDTSIYYCAREVWNYADYWGQGALVTVSS
VL: ELTQSPGTLSSSPGHRATLSCKASAPLGSNHMAWYQQKPGQAPRLLIYGASTRATGVPARFTGSGSGTDFTLTISSLQPEDFATYYCQQANSFPRTFGQGTKVEIK
Consider B1, for which the figures for the IC50 (neutralization, IIF infection foci count, InCellAnalyzer) in assay [1] and in assay [2] were 0.2 µg/mL and 0.7 µg/mL, respectively.
